Data as given in article PMC12786146.

Molecular target: MARY-MVP (protamine-tagged human major vault protein)
Experiment: dynamic light scattering; DLS radii at varying MARY-MVP (0 to 7.3 nM) with INT-CFP fixed at 8.3 nM, pH 6.5 phosphate buffer, 50 mM NaCl, 1.5 mM MgCl2, after concentration

MARY-MVP (protamine-tagged human major vault protein)
concentration of the transition from monomer to VLP: 5 nM
